From the DeepSol protein solubility set

Experiment: soluble on expression in E. coli; label from the status in PepcDB or PDB records

Row | Sequence | soluble on expression in E. coli
1 | MGSDKIHHHHHHMTNTIPNWIKLNNEIMIQKDGKYQFEKDKEAVHSYFVDYINQNTVFFHDLKEKLDYLIKNDYYEEEFLSKYTFEQIKSIYKIAYSYKFRFPSFMSAFKFYNDYALKTNDKTKILERYEDRVSIVALYCADGDYEKAVEEVHTMMKQEYQPATPTFLNAGRKRRGEMVSCFLLEVGDSLNDISRAIDISMQLSKLGGGVALNLNKLRAKGEAIKDVENATKGVVGVMKLLDNAFRYADQMG | not soluble
2 | LEADKCKEREEKIILVSSANEIDVRPCPLNPNEHKGTITWYKDDSKTPVSTEQASRIHQHKEKLWFVPAKVEDSGHYYCVVRNSSYCLRIKISAKFVENEPNLCYNAQAIFKQKLPVAGDGGLVCPYMEFFKNENNELPKLQWYKDCKPLLLDNIHFSGVKDRLIVMNVAEKHRGNYTCHASYTYLGKQYPITRVIEFITLEENKPTRPVIVSPANETMEVDLGSQIQLICNVTGQLSDIAYWKWNGSVIDEDDPVLGEDYYSVENPANKRRSTLITVLNISEIESRFYKHPFTCFAKNTHGIDAAYIQLIYPVTNFQK | soluble
3 | MSLYCNLLKPIKIGNLELKNRVSFAPTSMGLKLEEKIKKFSDIAKSGVALITLGDVSIRPSFHKVAISLSDEDGVMKYKKIVDEIHNSGAKVSAQLFCSDYDVNLIKDTMKMGITSHDEIKKIMNDGVKDYITNMTKGEIKNIINLFKVTALNAKKAGFDMIQIHGDRLVGSFSSSIFNNRNDEYGGTCDNRSRFASEIISSIRDEVKDIPIDYKFAIRQENPHYGNAGVLLSEVEYFVKKFESLGVNSFHVTLANHSKLEDTIPTNNHPYFKDEGCFLYLADEVKKHTNLPVCGVGKLSSPDFIESIISNNRVDMVSMSRQLLADSNWLQKVKDGRVDEIKKCCYCNKKCADALQTRSQFGCILDEGHHHHHH | soluble
4 | MQGQIIKALAGFYYVESDGQVYQTRARGNFRKKGHTPYVGDWVDFSAEENSEGYILKIHERKNSLVRPPIVNIDQAVVIMSVKEPDFNSNLLDRFLVLLEHKGIHPIVYISKMDLLEDRGELDFYQQTYGDIGYDFVTSKEELLSLLTGKVTVFMGQTGVGKSTLLNKIAPDLNLETGEISDSLGRGRHTTRAVSFYNLNGGKIADTPGFSSLDYEVSRAEDLNQAFPEIATVSRDCKFRTCTHTHEPSCAVKPAVEEGVIATFRFDNYLQFLSEIENRRETYKKVSKKIPK | not soluble
5 | MRGSHHHHHHTDPALRADLSLLKALSEADAIASSEQEVRQILLEEADRLQKEVRFDGLGSVLIRLNESTGPKVMICAHMDEVGFMVRSISREGAIDVLPVGNVRMAARQLQPVRITTREECKIPGLLDGDRQGNDVSAMRVDIGARSYDEVMQAGIRPGDRVTFDTTFQVLPHQRVMGKAFDDRLGCYLLVTLLRELHDAELPAEVWLVASSSEEVGLRGGQTATRAVSPDVAIVLDTACWAKNFDYGAANHRQIGNGPMLVLSDKSLIAPPKLTAWVETVAAEIGVPLQADMFSNGGTDGGAVHLTGTGVPTVVMGPATRHGHCAASIADCRDILQMQQLLSALIQRLTRETVVQLTDFRGLCGR | soluble
6 | SLKKIVESTTFPRTKQSITEDLKALGLKKGMTVLVHSSLSSIGWVNGGAVAVIQALIDVVTEEGTIVMPSQSVELSDPKEWGNPPVPEEWWDIIRESMPAYNSNYTPTTRGMGQIVELFRSYPEVKRSNHPNYSFVAWGKHKNKILNQHPLEFGLGEQSPLGKLYIRESYVLLLGADFDSSTCFHLAEYRIPYQKIINRGAPIIVEGKRVWKEYKELEFREELFQEVGQAFEAEHNMKVGKVGSANCRLFSLTEAVDFAEKWFINNDSKNIKK | soluble
7 | MGSDKIHHHHHHMHKVMISRIKGTQDIAFEDIDYWHFAEEIIRNISHKYAFTEIRTPIFEATELFKRSVGESTDVVQKEMYTFEDKGGRSITLRPEGTASVARAFIENSFINLGSPVKLFYSGPMFRYEKPQAGRLRQFHQFGAEILGSESPLADFEIIEMAYSFLKELKINNAKLFINSIGCPACREDYKTALKEYYSDKLAGMCPDCQRRYETNVLRLLDCKIDKGLVQGAPGILDYLDSDCRSHFEELQWYLERAGIDYEVDQFLVRGLDYYTRTAFEIRSSSLGSQDQLVGGGRYDGLVEYIGGKSCPAVGFAIGLERIVMLLKSENVRINGPETSEVAILTFGREESVRGFDYAKRLRKMGVSTFVDVMERNMRNKMKHASRIGAKISLLIGKEEIERDIVTIKVMNDGSQFQVDSDYMADYVVDKLRDIS | not soluble
8 | MSMEPTLQSILDQRSLRWIFVGGKGGVGKTTTSCSLAIQLAKVRRSVLLLSTDPAHNLSDAFSQKFGKEARLVEGFDNLYAMEIDPNGSMQDLLAGQTGDGDAGMGGVGVMQDLAYAIPGIDEAMSFAEVLKQVNSLSYETIVFDTAPTGHTLRFLQFPTVLEKALAKVSQLSGQYGSLLNGILGGSGTLPNGQTLSDVMEKLDSLRVTISEVNAQFKDERLTTFVCVCIPEFLSLYETERMIQELANYGIDTHCIVVNQLLFPKPGSDCEQCTARRRMQKKYLDQIEELYDEEFNVVKMPLLVEEVRGKERLEKFSEMLIKPFVPPEHHHHHH | soluble
9 | MGEDTRVSYQDIKARVLAAIRDNTWPPGAMLPGEVALAQEYGCARATVNRAMRELAEEGILERKRKAGTRVKLAPARQARFSIPVVREEIEALGASYRYALVSRSEEATPKWLAAQLGLGAGDRVLHLVCMHYADERPFQLEQRWINLATVPQAAKKDFSQTGPNEWLVSEVPFTDIRLSFSACRGNRETAEFLGGNETDAHFTVERVTWLGERPVTYARLLFHAGYRMTTTL | not soluble
10 | MGSDKIHHHHHHMTTIFIEKATILDAEKLTEIMTRTFDEEEKRWLCGQGDVIDYNIQPPGYSSVEMMRYSIEELDCYKVIMDGKIIGGIIVTISGKSYGRIDRIFVEPVYQGKGIGSYVIKLIEEEYPSIRIWDLETSSRQLNNHHFYKKMGYETIFKSEDEYCYVKRITVESAEENLIKNKDMKNSQYENCNLANTEYYQVNLKNSSFVGSNMMNMKMSNCNVRQSNFRNINFRNSSYADLNLSGSKFNFVTLGGVQFKDTSLGEDKDPISFNRCDLEGSTISNSNLKNMDIENCDITGMKINGIPIEKLLALYNKVKS | not soluble
11 | MDERTELLKRIEELEEKLRQCQQREQELEALIEEYNEVMKKQFQVFDDFFEKLGTTKMIDPLTRVYAKDHFLRLLSYQHQRAFEENTPYTIFFVKTKVSKNEREKALMKIGKILKECVRVPLDSVGRYSDDTFALFVIGVGKETAPNIEERIKNHIESIGGIEYSIAYKSYPEDFMDLEKAILDLEKAVA | not soluble
12 | MGSDKIHHHHHHMSADKYEVIIIGAGLAGLSAAYKLAKAGMEVVVVERGDYPGSKNLSGGVLYSRILDQLIPDFWEEAPIERYITNYLTTLMTPTDYVNIEYKDQELAKPPYNAVTVLRAKFDRWLAEKAEEAGAMIVTGVKVDKVLKEGGRITGITTGDEEMLADVVIAADGINSFIAQEAGLRGEIEPAHLAVGAKALIELPQQAIEERFRLEGNEGTAYAMLGDATHGVAGGGFFYTNRESLSIGVVMRLDDLVKEKVKPFEVLDDLLRHPLVAPLVKDGTMTEYGAHLTAEGGVHMVPSQLHTDGMLIVGDAAGFTINSGLVIRGMDLAIGSGMAAAEAVLEAKERGDYSAAALSSYQRKLDEGFIMKDLKLYAKAVDFMETDRLYKNYAPLANHLFGRIYNHDLSPKEHLWKSVLGSVQESGISWLDLARDGIKGVRAL | not soluble
13 | MKKEQVEKRTYLAVDIGASSGRIMKSQRLANGQITIEEIHRFKNGFHQKDGYQRWDMASLVHELLLGLQKVKQLGIKECFIGIDTWGVDYCLLDQSGQLLDEPIAYRDGRTEAAVTNFSKGYSLEKLYQQTGIQVQPFNTIFQLFVEEKERLAAASQLLLIPDYLGYVFTGKAVIEATNASTTQLLNAGTKQWESELLDFLGIDETLFPTLVEPGTILGDLQTAAFPDYDLPNATLITIASHDTASAILGTPGIGDDWAYISSGTWSLLGIETTVTTISAEAFQENYTNEWGAQNTIRFLKNIMGMWLIQEVARHQNYQYSYAELAALAEKEPAFQQFIDVNDPRFLNPGNMITELQAYCRETQQTVPESPGELARCIYDNLALCYSVELEKLAQLTGIERKITTLHVVGGGSNNRLLNQLTADVANVTVNAGPGEAIALGNLLMQMIATGELKDIPAARTCIQTSFPTEIYQANPIDSTIKNRYQAFMKRSSL | not soluble
